The target of assay [1] is human cMET-Fc fusion protein (extracellular domain of human cMET fused to human Fc) (human) (UniProt P08581). Briefly: SPR with hMet-Fc.
Assay [2] deals with mouse cMET (ELISA antigen) (mouse, UniProt P16056 25-931, limits assumed). As to the kind of experiment: ELISA, cross-reactivity, mouse cMET. (In general: In an ELISA, binding on a coated surface is turned into a signal by an enzyme label.)
Assay [3] addresses T1, human cMET-Fc fusion protein (extracellular domain of human cMET fused to human Fc) (human, UniProt P08581 25-932).
T1 construct: Mature cMET is cleaved into alpha and beta subunits; also called hMET-Fc; hMet-Fc
Briefly: SPR with hMet-Fc.

Assay [4] has as its target T2, rat cMET (ELISA antigen) (rat, UniProt P97523 25-935, limits assumed).
T2 construct: also called rMET
As to the kind of experiment: ELISA, cross-reactivity, rat cMET.

Another assay has as its target T3, rat cMET-Fc (rat, UniProt P97523 25-935).
T3 construct: Construct named only as rMET-Fc; also called rMET-Fc; not shown: Fc part
Briefly: SPR, rMET-Fc. A general note: In SPR one partner is held on a chip, and binding of the other changes the refractive index at the surface.

Assay [5] concerns the target T2, rat cMET (ELISA antigen). As to the kind of experiment: ELISA on rat cMET, relative to parental P3D12.
Assay [6] deals with T1, human cMET-Fc fusion protein …. Briefly: SPR, hMET-Fc.
Assay [7] deals with T4, mutant cMET (E168D) Fc recombinant fusion protein (human, UniProt P08581 25-932).
T4 construct: also called E168D cMET; E168D cMET extracellular domain fused to human IgG1 Fc; not shown: Fc of human IgG1
T4 sequence (P08581 25-932 E168D): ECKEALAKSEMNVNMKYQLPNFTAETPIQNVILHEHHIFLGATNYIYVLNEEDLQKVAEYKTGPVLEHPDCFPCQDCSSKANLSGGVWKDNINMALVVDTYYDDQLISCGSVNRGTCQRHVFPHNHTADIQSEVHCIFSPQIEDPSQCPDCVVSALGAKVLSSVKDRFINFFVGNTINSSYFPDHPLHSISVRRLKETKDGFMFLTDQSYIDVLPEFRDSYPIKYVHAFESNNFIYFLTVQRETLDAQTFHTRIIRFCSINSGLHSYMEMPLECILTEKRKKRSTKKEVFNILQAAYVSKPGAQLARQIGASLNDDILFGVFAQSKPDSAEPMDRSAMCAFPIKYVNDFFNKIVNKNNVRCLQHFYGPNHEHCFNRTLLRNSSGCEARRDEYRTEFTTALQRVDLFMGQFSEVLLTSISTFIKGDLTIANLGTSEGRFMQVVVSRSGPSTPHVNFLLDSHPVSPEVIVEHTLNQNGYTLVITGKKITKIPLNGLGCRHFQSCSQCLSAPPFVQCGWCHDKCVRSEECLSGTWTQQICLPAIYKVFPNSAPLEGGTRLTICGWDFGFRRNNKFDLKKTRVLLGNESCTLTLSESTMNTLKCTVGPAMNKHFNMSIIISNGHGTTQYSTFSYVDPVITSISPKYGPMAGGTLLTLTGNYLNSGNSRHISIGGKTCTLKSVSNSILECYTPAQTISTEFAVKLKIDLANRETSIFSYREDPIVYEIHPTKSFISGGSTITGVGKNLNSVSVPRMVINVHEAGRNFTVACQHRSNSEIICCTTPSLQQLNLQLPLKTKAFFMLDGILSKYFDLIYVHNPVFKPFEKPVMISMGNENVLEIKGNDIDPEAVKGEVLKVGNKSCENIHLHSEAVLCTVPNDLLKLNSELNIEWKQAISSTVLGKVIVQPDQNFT
Briefly: binding ELISA, plate-coated E168D cMET-Fc, goat anti-human IgG (H+L)-HRP (FIG. 16). On the procedure:
The E168D mutation is a somatic mutation found in small cell lung cancer (SCLC). The mutation is located in the Sema domain and leads to constitutive activation of the cMET receptor. Abundance of somatic mutations of cMET are very low. E168D occurs in 0.8% to 3% of SCLC patients. A binding ELISA was performed with human cMET or E168D cMET extracellular domains fused to human IgG1 Fc. cMET proteins were coated on a plate overnight and the samples titrated and detected with a goat anti-human IgG (H+L)-HRP. EC₅₀s were determined using sigmoidal dose response fit.

In assay [8] the target is T5, human cMET (ELISA antigen) (human, UniProt P08581 25-932, limits assumed).
T5 construct: also called hMET
T5 sequence (P08581 25-932 limits assumed): as the sequence (P08581 25-932 E168D) above, with D144E counted along it
As to the kind of experiment: ELISA on human cMET, relative to parental P3D12.

In assay [9] the target is T6, Recombinant Human c-Met-10X His (human, UniProt P08581 25-932).
T6 construct: In-house reagent (Lot #140924TA); not shown: 10X His tag
T6 sequence (P08581 25-932 limits assumed): as the sequence (P08581 25-932 E168D) above, with D144E counted along it
As to the kind of experiment: cMET binding ELISA, plate-bound human cMET (FIGS. 24A, 24B). On the procedure: The antibody drug conjugates were tested at increasing concentrations (x-axis, concentration of antibody-drug conjugate (μg/ml)) for their ability to bind plate-bound human cMET. Relative binding strength is indicated by luminescence (y-axis).
PMID: 5257969. The payload of chemical formula II was site-specifically conjugated to each of the mutated cysteine residues using Maleimide chemistry. The quality and extent of conjugation was assessed by a determination of total recovery, aggregate content, monomer content and drug-antibody ratio (DAR).

From patent publication US20250032632A1 (published 2025) come the findings set out here.

What is called Kd is a measure of binding affinity in units of concentration.

T2 sequence (P97523 25-935 limits assumed): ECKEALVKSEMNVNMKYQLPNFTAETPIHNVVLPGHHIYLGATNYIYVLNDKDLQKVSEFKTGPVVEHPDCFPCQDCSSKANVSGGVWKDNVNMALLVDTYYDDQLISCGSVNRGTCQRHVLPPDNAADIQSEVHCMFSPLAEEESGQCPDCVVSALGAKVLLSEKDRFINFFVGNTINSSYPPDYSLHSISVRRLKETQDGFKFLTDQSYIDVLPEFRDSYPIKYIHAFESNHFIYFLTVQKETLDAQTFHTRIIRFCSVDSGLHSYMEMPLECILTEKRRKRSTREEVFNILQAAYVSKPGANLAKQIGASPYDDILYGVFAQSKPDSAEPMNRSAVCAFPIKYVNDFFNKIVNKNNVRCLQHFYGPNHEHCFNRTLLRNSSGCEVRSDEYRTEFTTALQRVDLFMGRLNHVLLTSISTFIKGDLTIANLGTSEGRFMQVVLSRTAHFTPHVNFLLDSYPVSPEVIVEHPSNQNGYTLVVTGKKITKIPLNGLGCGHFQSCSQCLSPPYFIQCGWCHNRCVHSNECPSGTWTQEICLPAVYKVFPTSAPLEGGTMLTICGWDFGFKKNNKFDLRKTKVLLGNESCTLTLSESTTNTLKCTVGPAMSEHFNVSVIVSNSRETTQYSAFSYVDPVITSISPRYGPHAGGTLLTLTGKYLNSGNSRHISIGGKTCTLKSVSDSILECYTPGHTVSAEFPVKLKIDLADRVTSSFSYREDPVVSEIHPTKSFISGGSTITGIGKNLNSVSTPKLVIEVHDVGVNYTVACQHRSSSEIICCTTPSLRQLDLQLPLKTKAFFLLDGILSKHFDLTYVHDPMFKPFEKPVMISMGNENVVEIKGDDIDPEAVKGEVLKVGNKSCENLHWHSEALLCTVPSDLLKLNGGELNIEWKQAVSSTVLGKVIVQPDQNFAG
Chain of mouse cMET (ELISA antigen) (P16056 25-931 limits assumed): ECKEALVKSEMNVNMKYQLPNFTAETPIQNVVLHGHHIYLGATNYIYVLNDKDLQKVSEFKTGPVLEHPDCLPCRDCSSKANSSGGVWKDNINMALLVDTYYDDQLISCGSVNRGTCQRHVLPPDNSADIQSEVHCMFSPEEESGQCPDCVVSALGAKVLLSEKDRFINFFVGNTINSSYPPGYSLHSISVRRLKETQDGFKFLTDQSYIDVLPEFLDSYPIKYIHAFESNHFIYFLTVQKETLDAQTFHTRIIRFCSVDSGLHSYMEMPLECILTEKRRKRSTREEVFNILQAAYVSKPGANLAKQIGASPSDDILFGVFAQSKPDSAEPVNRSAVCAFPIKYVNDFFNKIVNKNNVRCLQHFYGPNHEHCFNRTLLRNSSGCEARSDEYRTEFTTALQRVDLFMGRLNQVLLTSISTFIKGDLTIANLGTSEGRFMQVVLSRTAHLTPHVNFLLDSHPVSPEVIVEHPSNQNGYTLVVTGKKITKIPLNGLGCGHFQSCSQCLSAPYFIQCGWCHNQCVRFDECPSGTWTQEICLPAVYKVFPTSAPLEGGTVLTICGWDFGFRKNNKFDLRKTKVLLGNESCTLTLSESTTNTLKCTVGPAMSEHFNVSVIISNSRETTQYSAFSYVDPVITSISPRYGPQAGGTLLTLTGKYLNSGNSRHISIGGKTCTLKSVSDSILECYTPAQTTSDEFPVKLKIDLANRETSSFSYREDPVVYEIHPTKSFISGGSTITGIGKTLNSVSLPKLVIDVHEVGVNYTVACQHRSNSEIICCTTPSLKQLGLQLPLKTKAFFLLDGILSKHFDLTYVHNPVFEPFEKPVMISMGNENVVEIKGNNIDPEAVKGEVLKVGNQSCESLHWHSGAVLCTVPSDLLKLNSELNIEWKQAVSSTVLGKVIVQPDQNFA
T1 sequence (P08581 25-932): as the sequence (P08581 25-932 E168D) above, with D144E counted along it
T3 sequence (P97523 25-935 limits assumed): as the sequence (P97523 25-935 limits assumed) above
Chain of human cMET-Fc fusion protein (extracellular domain of human cMET fused to human Fc) (human) (P08581 25-932): as the sequence (P08581 25-932 E168D) above, with D144E counted along it

5D5 (antibody) displayed a dissociation constant Kd in assay [1] of 0.8 nM.

B1: F6AP8E2 (antibody, V domains shown)
VH: EVQLQQSGAELVRPGALVKLSCKASGFNINDYFMHWVKQRPEQGLEWIGWIDPENGNTIYDPKFQGKASITADTSSNTAYLQLSSLTSEDTAVYYCARGGNYLRESYYYAMDYWGQGTSVTVSS
VL: DIVMTQSPKSMSMSVGERVTLSCKASENVGTYVSWYQQKPDQSPKLLIYGASNRYTGVPDRFTGSGSATDFTLTISSVQAEDLADYHCGQSYSYPLTFGAGTKLELKR
notes: Mouse monoclonal antibody
With B1, the binding result (in [2]; in the assay with rat cMET (ELISA antigen) [4]) was “no binding” each time. This molecule also yielded a Kd in [3] of 0.16 nM.

B2: hD12 (humanized anti-cMET antibody of IgG2 isotype, VH-cdr SEQ ID NO: 108 + VL-fra SEQ ID NO: 47) (antibody)
heavy: QVQLVQSGAEVKKPGASVKVSCKASGYTFTSYWMHWVKQAPGQGLDWIGYIKPSTDNTEYNQKFKDKATLTADKSTSTAYMELSSLRSEDTAVYYCARSYGNYPLMDYWGQGTTVTVSSASTKGPSVFPLAPCSRSTSESTAALGCLVKDYFPEPVTVSWNSGALTSGVHTFPAVLQSSGLYSLSSVVTVPSSNFGTQTYTCNVDHKPSNTKVDKTVERKCCVECPPCPAPPVAGPSVFLFPPKPKDTLMISRTPEVTCVVVDVSHEDPEVQFNWYVDGVEVHNAKTKPREEQFNSTFRVVSVLTVVHQDWLNGKEYKCKVSNKGLPAPIEKTISKTKGQPREPQVYTLPPSREEMTKNQVSLTCLVKGFYPSDIAVEWESNGQPENNYKTTPPMLDSDGSFFLYSKLTVDKSRWQQGNVFSCSVMHEALHNHYTQKSLSLSPGK
light: QIVLTQSPAILSLSPGERATLSCSASSSVTSNYLYWYQQKPGSSPKLLIYSTSNLASGVPARFSGSGSGTSYTLTISSLEAEDAASYFCHQWSSYPPTFGSGTKLEIKRTVAAPSVFIFPPSDEQLKSGTASVVCLLNNFYPREAKVQWKVDNALQSGNSQESVTEQDSKDSTYSLSSTLTLSKADYEKHKVYACEVTHQGLSSPVTKSFNRGEC
notes: also called G2ckf
With B2, the equilibrium dissociation constant (Kd) in the assay with rat cMET-Fc came to 7 nM; in assay [6] it was 0.3 nM. For the same molecule, the “ELISA rMET vs parental” value in the assay with rat cMET (ELISA antigen) [5] was 0.9 fold vs parental. Further, in assay [7], the binding result is “binds”. Also, the “ELISA hMET vs parental” value in assay [8] was 0.7 fold vs parental.

B3: hD12-T289C-II (hD12 T289C variant site-specifically conjugated to the payload of chemical formula II) (antibody, human IgG2, kappa)
heavy: QVQLVQSGAEVKKPGASVKVSCKASGYTFTSYWMHWVKQAPGQGLDWIGYIKPSTDNTEYNQKFKDKATLTADKSTSTAYMELSSLRSEDTAVYYCARSYGNYPLMDYWGQGTTVTVSSASTKGPSVFPLAPCSRSTSESTAALGCLVKDYFPEPVTVSWNSGALTSGVHTFPAVLQSSGLYSLSSVVTVPSSNFGTQTYTCNVDHKPSNTKVDKTVERKCCVECPPCPAPPVAGPSVFLFPPKPKDTLMISRTPEVTCVVVDVSHEDPEVQFNWYVDGVEVHNAKCKPREEQFNSTFRVVSVLTVVHQDWLNGKEYKCKVSNKGLPAPIEKTISKTKGQPREPQVYTLPPSREEMTKNQVSLTCLVKGFYPSDIAVEWESNGQPENNYKTTPPMLDSDGSFFLYSKLTVDKSRWQQGNVFSCSVMHEALHNHYTQKSLSLSPGK
light: QIVLTQSPAILSLSPGERATLSCSASSSVTSNYLYWYQQKPGSSPKLLIYSTSNLASGVPARFSGSGSGTSYTLTISSLEAEDAASYFCHQWSSYPPTFGSGTKLEIKRTVAAPSVFIFPPSDEQLKSGTASVVCLLNNFYPREAKVQWKVDNALQSGNSQESVTEQDSKDSTYSLSSTLTLSKADYEKHKVYACEVTHQGLSSPVTKSFNRGEC
modifications: payload of chemical formula II on Cys 289 (EU numbering), maleimide chemistry
notes: Antibody-drug conjugate, IgG2
With B3, the binding result in assay [9] was “binds”.

B4: F5P5B9 (antibody, V domains shown)
VH: QVQLKESGPGLVAPSQSLSITCTVSGFSLTNYGVNWVRQPPGKGLEWLGLIWGGGDTDYNSALKSRLSISKDNSKSQVFLKMETNSLQTDDTARYYCARDYYGFDYWGQGTTLTVSS
VL: DVLMTQTPLSLPVSLGDQASISCRSSQTIVHGTGNTYLEWYLQKPGQSPKLLIYKVSNRFSGVPDRFSGSGSGTDFTLKISRVEAEDLGVYYCFQGSHVPYTFGGGTKLEIKR
notes: Mouse monoclonal antibody
Turning to B4, the binding result (in assay [2]; with rat cMET (ELISA antigen) [4]) was “no binding” in each case.
